Measured values taken from patent US20020086014A1 (Bristol-Myers Squibb, published 2002).

Key:
[1] = molecular target: human CTLA-4 expressed on cells (human) (UniProt P16410); test: flow cytometry (FACScan), cell line expressing recombinant CTLA-4, FITC-anti human IgG
[2] = molecular target: murine CTLA-4 (murine) (UniProt P09793); test: as above
[3] = molecular target: macaque CTLA-4 (macaque); test: as above
[4] = molecular target: T1, purified recombinant human CTLA-4 (human, UniProt P16410 36-161, limits assumed); test: competitive ELISA on CTLA-4: unlabelled IgG 0-6666 ng/ml against biotin-labelled 3A4
T1 construct: also called purified CTLA-4; purified recombinant CTLA-4
T1 sequence (looked up): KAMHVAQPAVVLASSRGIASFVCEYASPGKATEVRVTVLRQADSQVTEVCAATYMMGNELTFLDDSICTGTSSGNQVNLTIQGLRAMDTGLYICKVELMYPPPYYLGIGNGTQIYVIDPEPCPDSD

[5] = molecular target: T1, purified recombinant human CTLA-4; test: competitive ELISA on CTLA-4: unlabelled IgG 0-6666 ng/ml against biotin-labelled BNI 3.1

Chain of murine CTLA-4 (murine) (P09793 36-223): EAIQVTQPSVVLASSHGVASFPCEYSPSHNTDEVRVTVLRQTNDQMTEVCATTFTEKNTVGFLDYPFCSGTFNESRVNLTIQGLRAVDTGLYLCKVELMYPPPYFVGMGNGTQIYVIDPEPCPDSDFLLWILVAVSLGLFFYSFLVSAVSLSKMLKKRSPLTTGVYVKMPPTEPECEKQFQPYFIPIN

Row | Molecule | MFI [1] [MFI] | MFI [2] [MFI] | MFI [3] [MFI] | IC50 (read off the curve) [4] [µg/mL] | IC50 (read off the curve) [5] [µg/mL]
1 | isotype control (Table 5) (antibody) | 3 | 5 | 4 |  | 
2 | BNI3 (antibody) |  |  |  | 0.09 | 0.5
3 | 1E2 (antibody, V domains shown, Human anti-CTLA-4 monoclonal antibody) VH: QVQLVESGGGVVQPGRSLRLSCAASGFTFSSYGMHWVRQAPGKGLEWVAVIWYDGSNKYYADSVKGRFTISRDNSKNTLYLQMNSLRAEDTAVFYCARAPNYIGAFDVWGQGTMVTVSS VL: DIQMTQSPSSLSASVGDRVTITCRASQGISSWLAWYQQKPEKAPKSLIYAASSLQSGVPSRFSGSGSGTDFTLTISSLQPEDFATYYCQQYNSYPPTFGQGTKVEIK |  |  |  | ~0.2 | 
